Molecular target: vimentin (rat (endogenous in glioma C6 cells)) (UniProt P31000)
Experiment: co-sedimentation

Sequence of vimentin (rat (endogenous in glioma C6 cells)) (P31000 whole entry): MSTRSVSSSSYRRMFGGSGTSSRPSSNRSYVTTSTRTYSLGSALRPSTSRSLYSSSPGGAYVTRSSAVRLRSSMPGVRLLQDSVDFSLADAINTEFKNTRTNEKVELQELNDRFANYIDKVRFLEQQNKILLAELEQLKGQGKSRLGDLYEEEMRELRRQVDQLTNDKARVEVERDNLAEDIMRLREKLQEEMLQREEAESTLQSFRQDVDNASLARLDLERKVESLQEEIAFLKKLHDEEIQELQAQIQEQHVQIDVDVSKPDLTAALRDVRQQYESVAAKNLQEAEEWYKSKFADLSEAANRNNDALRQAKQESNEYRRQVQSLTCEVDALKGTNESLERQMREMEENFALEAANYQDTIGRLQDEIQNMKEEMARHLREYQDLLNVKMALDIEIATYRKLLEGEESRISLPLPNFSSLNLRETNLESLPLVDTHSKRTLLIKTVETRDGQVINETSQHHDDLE

mass ratio of plectin to vimentin in the pelleted aggregates: 0.25
mass ratio plectin/vimentin in the pellet P1 (round 1): 0.28
mass ratio plectin/vimentin in the pellet P2 (round 2): 0.23
percent of the total plectin recovered in the pellet of the mixture: 27%
percent of the total vimentin recovered in the pellet of the mixture: 32%
Substance: plectin (Mr 300,000), P30427 1-4687

Source: PMC2115112
